Source: publication PMC11431768, “Mechanistic Insights into Substrate Recognition of Human Nucleoside Diphosphate Kinase C Based on Nucleotide-Induced Structural Changes” (International Journal of Molecular Sciences, 2024)

Experiments:
[1] = biological target: the molecule itself; test: SEC-MALS; SEC-RI-MALS; Superdex 200 5/150; samples at 60 to 600 µM; gel filtration buffer (20 mM Tris-HCl, 300 mM NaCl, 5 mM MgCl2, DTT); 0.3 mL/min; RI at 25 °C
[2] = biological target: the molecule itself; test: mass photometry; His-tagged NDPK-C directly after affinity purification

Protein	stoichiometry N [1]	stoichiometry N [2]
human nucleoside diphosphate kinase C, N-terminally truncated (residues Thr18–Glu169), untagged (enzyme, UniProt Q13232 18-169, looked up, human NDPK-C (nme3 gene product), residues Thr18-Glu169 of UniProt Q13232; The forward primer puts a start codon (Met) before Thr18; The results speak of a 156-residue subunit, while Thr18-Glu169 is 152 residues; The extra residues are probably what TEV cleavage leaves of the tag plus the Met; also called NDPK-C; NDPK isoform C; source: E. coli BL21 (DE3), purified (HisTrap, SEC, TEV cleavage, …)) TGAHERTFLAVKPDGVQRRLVGEIVRRFERKGFKLVALKLVQASEELLREHYAELRERPFYGRLVKYMASGPVVAMVWQGLDVVRTSRALIGATNPADAPPGTIRGDFCIEVGKNLIHGSDSVESARREIALWFRADELLCWEDSAGHWLYE	6	
His-tagged human NDPK-C (residues Thr18–Glu169) (enzyme, UniProt Q13232 18-169, looked up, human NDPK-C (nme3 gene product), residues Thr18-Glu169 of UniProt Q13232; the expression plasmid encodes a 173 amino acid polypeptide including the N-terminal TEV-cleavable His-tag; 173 residues in all; also called His-NDPK-C; His-tagged NDPK-C; not shown: His6, N-terminal, kept) TGAHERTFLAVKPDGVQRRLVGEIVRRFERKGFKLVALKLVQASEELLREHYAELRERPFYGRLVKYMASGPVVAMVWQGLDVVRTSRALIGATNPADAPPGTIRGDFCIEVGKNLIHGSDSVESARREIALWFRADELLCWEDSAGHWLYE		6
